Key:
HLA-B*46:01 = assay: IEDB peptide-MHC binding, purified MHC/competitive/fluorescence; filed as Kd, often an IC50 or EC50 that approximates it; ≥ and ≤ were set here for values at or beyond the usual limits of such assays
HLA-B*35:01 [1] = assay: IEDB peptide-MHC binding, purified MHC/direct/fluorescence; filed as Kd, often an IC50 or EC50 that approximates it; ≥ and ≤ were set here for values at or beyond the usual limits of such assays
HLA-A*26:01 [2] = assay: IEDB peptide-MHC binding, purified MHC/competitive/fluorescence; filed as Kd, often an IC50 or EC50 that approximates it; ≥ and ≤ were set here for values at or beyond the usual limits of such assays
HLA-A*69:01 [3] = assay: as above
HLA-B*15:01 [4] = assay: as above
HLA-A*02:01 [5] = assay: as above
HLA-B*18:01 = assay: as above
HLA-B*27:03 = assay: as above; details: source organism: Zaire ebolavirus
HLA-B*15:17 = assay: as above
HLA-B*57:01 = assay: as above
HLA-B*39:01 = assay: as above
HLA-B*51:01 = assay: as above
HLA-A*11:01 [6] = assay: IEDB peptide-MHC binding, purified MHC/competitive/fluorescence; ≥ and ≤ were set here for values at or beyond the usual limits of such assays; details: source organism: Zaire ebolavirus
HLA-A*02:01 [7] = assay: as above; details: source organism: Zaire ebolavirus
HLA-A*03:01 [8] = assay: as above; details: source organism: Zaire ebolavirus
HLA-A*02:03 = assay: IEDB peptide-MHC binding, purified MHC/direct/fluorescence; filed as Kd, often an IC50 or EC50 that approximates it; ≥ and ≤ were set here for values at or beyond the usual limits of such assays
HLA-A*02:12 = assay: as above
HLA-A*29:02 = assay: as above
HLA-A*23:01 = assay: as above
HLA-A*03:01 [9] = assay: as above
HLA-A*02:16 = assay: as above
HLA-A*68:02 [10] = assay: as above
HLA-A*02:19 = assay: as above
HLA-A*02:11 = assay: as above
HLA-A*24:03 = assay: as above
HLA-B*27:05 = assay: as above
HLA-A*26:01 [11] = assay: as above
HLA-B*40:01 = assay: as above
HLA-B*58:01 = assay: as above
HLA-A*69:01 [12] = assay: as above
HLA-A*11:01 [13] = assay: as above
HLA-B*15:01 [14] = assay: as above
HLA-A*02:01 [15] = assay: as above
HLA-A*31:01 = assay: as above
HLA-A*01:01 = assay: as above
HLA-B*08:01 [16] = assay: as above
HLA-B*44:02 = assay: as above
HLA-B*35:01 [17] = assay: IEDB peptide-MHC binding, purified MHC/competitive/fluorescence; filed as Kd, often an IC50 or EC50 that approximates it; ≥ and ≤ were set here for values at or beyond the usual limits of such assays; details: source organism: Influenza A virus (A/duck/Hong Kong/3096/99(H6N2))
HLA-A*68:02 [18] = assay: as above; details: source organism: Influenza A virus (A/duck/Hong Kong/3096/99(H6N2))
HLA-B*08:01 [19] = assay: as above; details: source organism: Influenza A virus (A/duck/Hong Kong/3096/99(H6N2))
HLA-A*26:02 = assay: as above; details: source organism: Influenza A virus (A/duck/Hong Kong/3096/99(H6N2))
HLA-A*02:06 = assay: as above; details: source organism: Influenza A virus (A/duck/Hong Kong/3096/99(H6N2))
HLA-B*07:02 = assay: IEDB peptide-MHC binding, purified MHC/direct/fluorescence; filed as Kd, often an IC50 or EC50 that approximates it; ≥ and ≤ were set here for values at or beyond the usual limits of such assays
[20] = source organism: Zaire ebolavirus
[21] = source organism: Escherichia coli O157:H7
[22] = source organism: Influenza A virus (A/duck/Hong Kong/3096/99(H6N2))
[23] = source organism: Influenza A virus(A/swine/Shandong/fZC/2003(H9N2))
[24] = source organism: Influenza A virus (A/tiger/Thailand/CU-T4/04(H5N1))
[25] = source organism: Coxiella burnetii

FAAWIQQTY
Kd (HLA-B*46:01; source organism: Vibrio parahaemolyticus AN-5034): 0.125 µM
Kd (HLA-B*35:01 [1]; source organism: Vibrio parahaemolyticus RIMD 2210633): 0.01 µM

FLILPQAKK
Kd (HLA-A*26:01 [2]; [20]): ≥ 20 µM
Kd (HLA-A*69:01 [3]; [20]): ≥ 20 µM
Kd (HLA-B*15:01 [4]; [20]): ≥ 20 µM
Kd (HLA-B*46:01; [20]): ≥ 20 µM
Kd (HLA-A*02:01 [5]; [20]): ≥ 20 µM
Kd (HLA-B*18:01; [20]): ≥ 20 µM
Kd (HLA-B*27:03): ≥ 20 µM
Kd (HLA-B*15:17; [20]): ≥ 20 µM
Kd (HLA-B*57:01; [20]): ≥ 20 µM
Kd (HLA-B*39:01; [20]): ≥ 20 µM
Kd (HLA-B*51:01; [20]): ≥ 20 µM
IC50 (HLA-A*11:01 [6]): 1.67 µM
IC50 (HLA-A*02:01 [7]): 64.7 µM
IC50 (HLA-A*03:01 [8]): 4.4 µM
Kd (HLA-A*02:03; [20]): ≥ 20 µM
Kd (HLA-A*02:12; [20]): ≥ 20 µM
Kd (HLA-A*29:02; [20]): ≥ 20 µM
Kd (HLA-A*23:01; [20]): ≥ 20 µM
Kd (HLA-A*03:01 [9]; [20]): ≥ 20 µM
Kd (HLA-A*02:16; [20]): ≥ 20 µM
Kd (HLA-A*68:02 [10]; [20]): ≥ 20 µM
Kd (HLA-A*02:19; [20]): ≥ 20 µM
Kd (HLA-A*02:11; [20]): ≥ 20 µM
Kd (HLA-A*24:03; [20]): ≥ 20 µM

GRFQEALKK
Kd (HLA-A*26:01 [2]; source organism: Choclo virus): ≥ 20 µM
Kd (HLA-A*69:01 [3]; source organism: Choclo virus): ≥ 20 µM
Kd (HLA-B*15:01 [4]; source organism: Choclo virus): ≥ 20 µM
Kd (HLA-B*46:01; source organism: Choclo virus): ≥ 20 µM
Kd (HLA-A*02:01 [5]; source organism: Choclo virus): ≥ 20 µM
Kd (HLA-B*18:01; source organism: Choclo virus): ≥ 20 µM
Kd (HLA-B*15:17; source organism: Choclo virus): ≥ 20 µM
Kd (HLA-B*57:01; source organism: Choclo virus): ≥ 20 µM
Kd (HLA-B*39:01; source organism: Choclo virus): ≥ 20 µM
Kd (HLA-B*51:01; source organism: Choclo virus): ≥ 20 µM
Kd (HLA-A*02:03; source organism: Choclo virus): ≥ 20 µM
Kd (HLA-A*02:12; source organism: Choclo virus): ≥ 20 µM
Kd (HLA-A*29:02; source organism: Choclo virus): ≥ 20 µM
Kd (HLA-A*23:01; source organism: Choclo virus): ≥ 20 µM
Kd (HLA-B*27:05; source organism: Orthohantavirus andesense): 0.0717 µM
Kd (HLA-A*03:01 [9]; source organism: Choclo virus): ≥ 20 µM
Kd (HLA-A*02:16; source organism: Choclo virus): ≥ 20 µM
Kd (HLA-A*68:02 [10]; source organism: Choclo virus): ≥ 20 µM
Kd (HLA-A*02:19; source organism: Choclo virus): ≥ 20 µM
Kd (HLA-A*02:11; source organism: Choclo virus): ≥ 20 µM
Kd (HLA-A*24:03; source organism: Choclo virus): ≥ 20 µM

IRNPPMVVF
Kd (HLA-A*26:01 [11]; [21]): ≥ 20 µM
Kd (HLA-B*40:01; [21]): ≥ 20 µM
Kd (HLA-B*35:01 [1]; [21]): ≥ 10 µM
Kd (HLA-B*58:01; [21]): ≥ 20 µM
Kd (HLA-A*69:01 [12]; [21]): ≥ 20 µM
Kd (HLA-A*11:01 [13]; [21]): ≥ 20 µM
Kd (HLA-B*15:01 [14]; [21]): ≥ 20 µM
Kd (HLA-A*02:01 [15]; [21]): ≥ 20 µM
Kd (HLA-B*27:05; [21]): 3.25 µM
Kd (HLA-A*03:01 [9]; [21]): ≥ 20 µM
Kd (HLA-A*31:01; [21]): ≥ 20 µM
Kd (HLA-A*01:01; [21]): ≥ 20 µM
Kd (HLA-B*08:01 [16]; [21]): ≥ 20 µM
Kd (HLA-B*44:02; [21]): ≥ 20 µM

TMLYNKMEF
Kd (HLA-B*35:01 [17]): 1.26 µM
Kd (HLA-B*46:01; [22]): ≥ 20 µM
Kd (HLA-B*15:17; [22]): 0.311 µM
Kd (HLA-B*57:01; [22]): ≥ 20 µM
Kd (HLA-A*68:02 [18]): 4.44 µM
Kd (HLA-B*08:01 [19]): 3 µM
Kd (HLA-A*26:02): ≥ 20 µM
Kd (HLA-A*02:06): 0.312 µM
Kd (HLA-B*39:01; [22]): ≥ 20 µM
Kd (HLA-A*02:03; [23]): ≥ 20 µM
Kd (HLA-A*26:01 [11]; [23]): ≥ 20 µM
Kd (HLA-A*02:12; [23]): 3.47 µM
Kd (HLA-B*58:01; [24]): ≥ 20 µM
Kd (HLA-A*11:01 [13]; [24]): ≥ 20 µM
Kd (HLA-B*15:01 [14]; source organism: Influenza A virus (A/Puerto Rico/8/34/Mount Sinai(H1N1))): 0.118 µM
Kd (HLA-A*23:01; [24]): 0.047 µM
Kd (HLA-A*02:01 [15]; [24]): 0.604 µM
Kd (HLA-B*27:05; [24]): ≥ 20 µM
Kd (HLA-A*03:01 [9]; [24]): ≥ 20 µM
Kd (HLA-A*31:01; [24]): ≥ 20 µM
Kd (HLA-B*07:02; [24]): ≥ 20 µM
Kd (HLA-A*01:01; [24]): ≥ 20 µM
Kd (HLA-A*02:19; [23]): ≥ 5 µM
Kd (HLA-A*02:11; [23]): 0.157 µM
Kd (HLA-A*24:03; [24]): 0.0114 µM

WAPEGDIRL
Kd (HLA-A*26:01 [11]; [25]): ≥ 20 µM
Kd (HLA-B*40:01; [25]): ≥ 20 µM
Kd (HLA-B*35:01 [1]; [25]): 0.899 µM
Kd (HLA-B*58:01; [25]): ≥ 20 µM
Kd (HLA-A*69:01 [12]; [25]): ≥ 20 µM
Kd (HLA-A*11:01 [13]; [25]): ≥ 20 µM
Kd (HLA-B*15:01 [14]; [25]): ≥ 20 µM
Kd (HLA-A*02:01 [15]; [25]): 0.33 µM
Kd (HLA-B*27:05; [25]): ≥ 20 µM
Kd (HLA-A*03:01 [9]; [25]): ≥ 20 µM
Kd (HLA-A*31:01; [25]): ≥ 20 µM
Kd (HLA-B*07:02; [25]): 4.29 µM
Kd (HLA-A*01:01; [25]): ≥ 20 µM
Kd (HLA-B*08:01 [16]; [25]): ≥ 20 µM
Kd (HLA-B*44:02; [25]): ≥ 20 µM
Kd (HLA-A*24:03; [25]): ≥ 20 µM
